{"source": "patent US8710181B2", "about": "“Use of tris(hydroxymethyl) aminomethane for the stabilization of peptides, polypeptides and proteins” (Novo Nordisk A/S, priority 2004, dated 2014)", "assay_type_in_all_cases": "physicochemical", "key": {"[1]": {"experiment": "Repeated runs on Source 30S column 45 cm i.d. with TRIS: pressure, analysis of column material for aggregated/fibrillated proteins (Example 4)", "conditions": "after 283 runs on Source 30S column, 10 mM Tris", "description": "(§1) Gelation/fibrillation/aggregation can be estimated by the Thioflavin T test […] resulting in a colored response the degree of gelation. Another result would be increased viscosity of the gelated solution resulting in increasing back pressure on chromatographic columns during multiple runs—this is usually the first indication of gelation taking place, […].\nAn aqueous solution of Arg34-GLP-1[7-37] containing approximately 2% by weight ethanol and 10 mM of tris(hydroxymethyl)aminomethane, at pH 9.2 was made at room temperature, pH was adjusted to 3.2.\nAliquot of the solution was loaded to an ion-exchange column, 45 cm i.d., Source 30S, Amersham Bioscience, at pH 3.3 and after wash of the column with an acid buffer containing ethanol and citric acid, the product was eluted with an aqueous solution containing 10 mM Tris at pH 9.2. The column was regenerated and loaded again with loading solution."}, "[2]": {"experiment": "Repeated preparative runs on Source 30S column 20 cm I.D. with TRIS: pressure and fibrillation (Example 2)", "description": "as §1\n(§2) An aqueous solution of Arg34-GLP-1[7-37] containing approximately 2% by weight ethanol and 10 mM of tris(hydroxymethyl)aminomethane, at pH 9.2 was made at room temperature by dissolution of an Arg34-GLP-1[7-37] isoelectric precipitate directly in the solution. Subsequently, pH was adjusted to 3.2.\nA preparative aliquot of the solution was loaded on a large scale ion-exchange column, 20 cm I.D. (internal diameter), Source 30S, Amersham Bioscience, at pH 3.3 and after washing the column with an acid buffer containing ethanol and citric acid to remove impurities, the product was eluted with an aqueous solution containing 10 mM Tris at pH 9.2. The column was regenerated with 1 M NaOH, equilibrated with the acidic wash buffer, and the column was loaded again with loading solution. Eluate from the Source 30S column was automatically pH adjusted with 100 mM tris buffer pH 7.4 to pH 8.0."}, "[3]": {"experiment": "Comparative room temperature stability with glycine instead of TRIS, monitored by RP-HPLC (Comparative Example 1)", "description": "A comparative test with 20-200 mM glycine instead of tris(hydroxymethyl)aminomethane was done.\nAn aqueous solution of Arg34-GLP-1[7-37] containing approximately 2% by weight ethanol and 20 mM of glycine, at pH 9.0 was made at room temperature, pH was adjusted to approximately 3.3.\nThe solution was loaded to an ion-exchange column, Source 30S, Amersham Bioscience, at pH 3.3 and after wash of the column with an acid buffer containing ethanol and citric acid, the product was eluted with an aqueous solution containing 200 mM Glycine at pH 9.5. The stability of the eluate from the column was monitored by RP-HPLC at room temperature for 5 days."}, "[4]": {"experiment": "Room temperature stability of Arg34-GLP-1[7-37] loading solution and column eluate with TRIS, monitored by RP-HPLC (Example 1)", "conditions": "for Arg34-GLP-1[7-37] eluate concentration: 10 mM Tris pH 9.2, RP-HPLC; for Arg34-GLP-1[7-37] concentration in loading solution: 10 mM TRIS, pH adjusted to 3.2, RP-HPLC", "description": "An aqueous solution of Arg34-GLP-1[7-37] containing approximately 2% by weight ethanol and 10 mM of tris(hydroxymethyl)aminomethane, at pH 9.2 was made at room temperature, pH was adjusted to 3.2. The room temperature stability of the solution was monitored by RP-HPLC.\nThe solution was loaded on an ion-exchange column, Source 30S, Amersham Bioscience, at pH 3.23 and after washing the column with an acid buffer containing ethanol and citric acid, the product was eluted with an aqueous solution containing 10 mM Tris at pH 9.2. The room temperature stability of the eluate from the column was monitored by RP-HPLC (Table 1)/(FIG. 1)."}, "[5]": {"experiment": "Repeated runs on Source 30Q and RP-HPLC columns with TRIS: pressure, analysis of column material for aggregated/fibrillated proteins (Example 5)", "conditions": "20 mM tris", "source_text": "as §1\nAn aqueous solution of N^ε-hexadecanoyl-γ-glutamyl-Lys26-Arg34-GLP-1[7-37] containing approximately 2% by weight ethanol and 10 mM of tris(hydroxymethyl)aminomethane, at pH 9.2 was made at room temperature. Aliquot of the solution was loaded to an ion-exchange column, 45 cm i.d., Source 30Q, Amersham Bioscience, at pH 9.2 and after wash of the column with an neutral buffer containing 20 mM tris and 63% by weight ethanol (pH 7.5), the product was eluted by an sodium chloride gradient at pH 7.5 in a 20 mM tris buffer containing 63% by weight ethanol. The column was regenerated and loaded again with loading solution. One eluate from the Source 30Q column was automatically diluted with water before it was applied to an other column, RP-HPLC column 100 Å C-18, particle diameter i.d. 15 μm, column i.d. 45 cm, and eluted with a buffer containing 20 mM tris, 125 mM sodium chloride and approx. 45% by weight ethanol at pH 6.9."}, "[6]": {"experiment": "Repeated preparative runs on Source 30Q and RP-HPLC C-18 columns with TRIS: pressure and fibrillation (Example 3)", "source_text": "as §1\nas §2, with “N^ε-hexadecanoyl-γ-glutamyl-Lys26-Arg34-GLP-1[7-37]” for “Arg34-GLP-1[7-37]”, “solution.” for “solution. Subsequently, pH was adjusted to 3.2.”\nA preparative aliquot of the solution was loaded on a large scale ion-exchange column, 45 cm I.D. (internal diameter), Source 30Q, Amersham Bioscience, at pH 9.2 and after washing the column with an buffer containing 20 mM tris and 63% by weight ethanol (pH 7.5) to remove impurities, the product was eluted by a sodium chloride gradient at pH 7.5 in a 20 mM tris buffer containing 63% by weight ethanol. The column was regenerated with 1 M NaOH, equilibrated with the pH 7.5 wash buffer, and the column was loaded again with loading solution. Eluate from the Source 30Q column was automatically diluted with water before it was loaded on another large scale column, RP-HPLC column 100 Å C-18, particle diameter 15 μm, column I.D. 45 cm, and eluted with a buffer solution containing 20 mM tris, 125 mM sodium chloride and approx. 45% by weight ethanol at pH 6.9. The column was regenerated with a 70% ethanol solution and subsequently equilibrated with a 25% ethanol solution containing 20 mM Tris."}, "[7]": {"conditions": "after 60 runs on Source 30S column, 20 cm I.D., 10 mM Tris"}, "[8]": {"conditions": "after 77 runs on Source 30Q column, 63% ethanol"}, "[9]": {"conditions": "after 60 runs on both Source 30Q column and RP-HPLC column, tris buffers with ethanol"}}}
{"substance": "Arg34-GLP-1[7-37]", "values": [{"measurement": "change in pressure on column", "setting": "[1]", "value": "without change in pressure"}, {"measurement": "proteins or aggregated/fibrillated proteins on the column material", "setting": "[1]", "value": "no observation of proteins or aggregated/fibrillated proteins"}, {"measurement": "fibrillation in loading solution and eluate", "setting": "[2]; 60 runs, Source 30S, 10 mM TRIS loading solution, eluate adjusted to pH 8.0 with tris buffer", "value": "no fibrillation was observed"}, {"measurement": "change in pressure on column", "setting": "[2]; [7]", "value": "no change in pressure was observed"}, {"measurement": "fibrillation on the column", "setting": "[2]; [7]", "value": "no fibrillation had occurred on the column"}, {"measurement": "stability at room temperature (fibrillation)", "setting": "[3]; eluate, 200 mM Glycine pH 9.5", "value": "less than one day"}, {"measurement": "stability at room temperature (fibrillation)", "setting": "[3]; loading solution, 20 mM glycine, approx. 2% ethanol, pH approx. 3.3", "value": "less than one day"}, {"measurement": "Arg34-GLP-1[7-37] eluate concentration", "setting": "[4]; Day 0, Source 30S eluate", "value": 1.4, "unit": "mg/mL"}, {"measurement": "Arg34-GLP-1[7-37] concentration in loading solution", "setting": "[4]; Day 0, approx. 2% ethanol", "value": 1.7, "unit": "mg/mL"}, {"measurement": "Arg34-GLP-1[7-37] eluate concentration", "setting": "[4]; Day 1, Source 30S eluate", "value": 1.4, "unit": "mg/mL"}, {"measurement": "Arg34-GLP-1[7-37] concentration in loading solution", "setting": "[4]; Day 1, approx. 2% ethanol", "value": 1.7, "unit": "mg/mL"}, {"measurement": "Arg34-GLP-1[7-37] eluate concentration", "setting": "[4]; Day 2, Source 30S eluate", "value": 1.4, "unit": "mg/mL"}, {"measurement": "Arg34-GLP-1[7-37] concentration in loading solution", "setting": "[4]; Day 2, approx. 2% ethanol", "value": 1.7, "unit": "mg/mL"}, {"measurement": "Arg34-GLP-1[7-37] eluate concentration", "setting": "[4]; Day 3, Source 30S eluate", "value": 1.3, "unit": "mg/mL"}, {"measurement": "Arg34-GLP-1[7-37] concentration in loading solution", "setting": "[4]; Day 5, approx. 2% ethanol", "value": 1.7, "unit": "mg/mL"}, {"measurement": "Gelation/fibrillation/aggregation", "setting": "[4]; loading solution and eluate with 10 mM TRIS", "value": "not observed"}]}
{"substance": "N^ε-hexadecanoyl-γ-glutamyl-Lys26-Arg34-GLP-1[7-37]", "values": [{"measurement": "aggregated/fibrillated proteins on the column material", "setting": "[5]; RP-HPLC column 100 Å C-18 after 49 runs, 125 mM NaCl, approx. 45% ethanol, pH 6.9", "value": "no observations of aggregated/fibrillated proteins"}, {"measurement": "aggregated/fibrillated proteins on the column material", "setting": "[5]; [8]", "value": "no observation of aggregated/fibrillated proteins"}, {"measurement": "change in pressure on column", "setting": "[5]; [8]", "value": "without change in pressure"}, {"measurement": "fibrillation in loading solutions and eluates", "setting": "[6]; 60 runs, Source 30Q and RP-HPLC, 10-20 mM tris", "value": "no fibrillation was observed"}, {"measurement": "change in pressure on column", "setting": "[6]; [9]", "value": "no change in pressure was observed"}, {"measurement": "fibrillation on the column", "setting": "[6]; [9]", "value": "no fibrillation had occurred on the column"}]}
